Reference: US20190177366A1 (published 2019)
Bridge positions count the residues as written; N and C are the ends. Square brackets hold non-standard residues; d marks the D form. hArg = N=C(N)NCCCC[C@H](N)C(=O)O

Molecular target: T1, His-tagged, full-length PCSK9 (human, UniProt A8T644 31-152; Q8NBP7 153-692)
T1 construct: Target protein of the PCSK9/EGF(A) TR-FRET assay (10 nM); also called His-PCSK9; proprotein convertase subtilisin/kexin type 9
Assay: TR-FRET competition; competitor EGF(A)-Fc on His-PCSK9

T1 sequence (A8T644 31-152 limits assumed, chain 1 of 2): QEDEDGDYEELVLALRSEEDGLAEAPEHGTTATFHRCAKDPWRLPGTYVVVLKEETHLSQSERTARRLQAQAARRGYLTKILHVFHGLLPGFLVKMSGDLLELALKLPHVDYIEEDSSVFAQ
T1 sequence (A8T644 other isoform, or with tags, fused parts or gaps limits assumed, chain 2 of 2): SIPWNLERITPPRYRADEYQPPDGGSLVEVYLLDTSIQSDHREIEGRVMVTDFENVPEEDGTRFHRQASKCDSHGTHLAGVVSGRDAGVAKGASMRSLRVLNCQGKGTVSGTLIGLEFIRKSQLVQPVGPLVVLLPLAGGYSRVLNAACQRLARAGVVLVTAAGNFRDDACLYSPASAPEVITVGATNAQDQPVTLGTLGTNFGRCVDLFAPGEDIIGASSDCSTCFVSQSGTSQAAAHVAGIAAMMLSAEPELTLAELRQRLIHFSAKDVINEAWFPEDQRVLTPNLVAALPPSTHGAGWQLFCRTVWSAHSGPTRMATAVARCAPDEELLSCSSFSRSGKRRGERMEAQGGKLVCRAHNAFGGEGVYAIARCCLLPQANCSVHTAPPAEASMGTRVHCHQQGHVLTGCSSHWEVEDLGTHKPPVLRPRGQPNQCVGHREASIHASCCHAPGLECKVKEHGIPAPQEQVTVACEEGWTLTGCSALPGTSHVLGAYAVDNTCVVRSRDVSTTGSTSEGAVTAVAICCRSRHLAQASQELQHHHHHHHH

Binder | IC50 [µM]
Ac-CRLPW[dN]LQRIGLPC-NH2 (disulfide 1-14; SMILES CC[C@H](C)[C@@H]1NC(=O)[C@H](CCCNC(=N)N)NC(=O)[C@H](CCC(N)=O)NC(=O)[C@H](CC(C)C)NC(=O)[C@@H](CC(N)=O)NC(=O)[C@H](Cc2c[nH]c3ccccc23)NC(=O)[C@@H]2CCCN2C(=O)[C@H](CC(C)C)NC(=O)[C@H](CCCNC(=N)N)NC(=O)[C@@H](NC(C)=O)CSSC[C@@H](C(N)=O)NC(=O)[C@@H]2CCCN2C(=O)[C@H](CC(C)C)NC(=O)CNC1=O) [Compound 105] | > 50
Ac-CRL[dP]WNLQRIGLPC-NH2 (disulfide 1-14; SMILES CC[C@H](C)[C@@H]1NC(=O)[C@H](CCCNC(=N)N)NC(=O)[C@H](CCC(N)=O)NC(=O)[C@H](CC(C)C)NC(=O)[C@H](CC(N)=O)NC(=O)[C@H](Cc2c[nH]c3ccccc23)NC(=O)[C@H]2CCCN2C(=O)[C@H](CC(C)C)NC(=O)[C@H](CCCNC(=N)N)NC(=O)[C@@H](NC(C)=O)CSSC[C@@H](C(N)=O)NC(=O)[C@@H]2CCCN2C(=O)[C@H](CC(C)C)NC(=O)CNC1=O) [Compound 107] | > 50
Ac-CRLPWNLQRIG[dL]PC-NH2 (disulfide 1-14; SMILES CC[C@H](C)[C@@H]1NC(=O)[C@H](CCCNC(=N)N)NC(=O)[C@H](CCC(N)=O)NC(=O)[C@H](CC(C)C)NC(=O)[C@H](CC(N)=O)NC(=O)[C@H](Cc2c[nH]c3ccccc23)NC(=O)[C@@H]2CCCN2C(=O)[C@H](CC(C)C)NC(=O)[C@H](CCCNC(=N)N)NC(=O)[C@@H](NC(C)=O)CSSC[C@@H](C(N)=O)NC(=O)[C@@H]2CCCN2C(=O)[C@@H](CC(C)C)NC(=O)CNC1=O) [Compound 100] | > 50
Ac-CRLPWNLQRIGL[dP]C-NH2 (disulfide 1-14; SMILES CC[C@H](C)[C@@H]1NC(=O)[C@H](CCCNC(=N)N)NC(=O)[C@H](CCC(N)=O)NC(=O)[C@H](CC(C)C)NC(=O)[C@H](CC(N)=O)NC(=O)[C@H](Cc2c[nH]c3ccccc23)NC(=O)[C@@H]2CCCN2C(=O)[C@H](CC(C)C)NC(=O)[C@H](CCCNC(=N)N)NC(=O)[C@@H](NC(C)=O)CSSC[C@@H](C(N)=O)NC(=O)[C@H]2CCCN2C(=O)[C@H](CC(C)C)NC(=O)CNC1=O) [Compound 99] | > 50
Ac-CRLPWNLQ[dR]IGLPC-NH2 (disulfide 1-14; SMILES CC[C@H](C)[C@@H]1NC(=O)[C@@H](CCCNC(=N)N)NC(=O)[C@H](CCC(N)=O)NC(=O)[C@H](CC(C)C)NC(=O)[C@H](CC(N)=O)NC(=O)[C@H](Cc2c[nH]c3ccccc23)NC(=O)[C@@H]2CCCN2C(=O)[C@H](CC(C)C)NC(=O)[C@H](CCCNC(=N)N)NC(=O)[C@@H](NC(C)=O)CSSC[C@@H](C(N)=O)NC(=O)[C@@H]2CCCN2C(=O)[C@H](CC(C)C)NC(=O)CNC1=O) [Compound 102] | > 50
Ac-CRLPWNLQR[dI]GLPC-NH2 (disulfide 1-14; SMILES CC[C@@H](C)[C@H]1NC(=O)[C@H](CCCNC(=N)N)NC(=O)[C@H](CCC(N)=O)NC(=O)[C@H](CC(C)C)NC(=O)[C@H](CC(N)=O)NC(=O)[C@H](Cc2c[nH]c3ccccc23)NC(=O)[C@@H]2CCCN2C(=O)[C@H](CC(C)C)NC(=O)[C@H](CCCNC(=N)N)NC(=O)[C@@H](NC(C)=O)CSSC[C@@H](C(N)=O)NC(=O)[C@@H]2CCCN2C(=O)[C@H](CC(C)C)NC(=O)CNC1=O) [Compound 101] | > 50
Ac-CRLPWALQRIGLPC-NH2 (disulfide 1-14; SMILES CC[C@H](C)[C@@H]1NC(=O)[C@H](CCCNC(=N)N)NC(=O)[C@H](CCC(N)=O)NC(=O)[C@H](CC(C)C)NC(=O)[C@H](C)NC(=O)[C@H](Cc2c[nH]c3ccccc23)NC(=O)[C@@H]2CCCN2C(=O)[C@H](CC(C)C)NC(=O)[C@H](CCCNC(=N)N)NC(=O)[C@@H](NC(C)=O)CSSC[C@@H](C(N)=O)NC(=O)[C@@H]2CCCN2C(=O)[C@H](CC(C)C)NC(=O)CNC1=O) [Compound 75] | > 50
Ac-CRLPWNLQRIGGGC-NH2 (disulfide 1-14; SMILES CC[C@H](C)[C@@H]1NC(=O)[C@H](CCCNC(=N)N)NC(=O)[C@H](CCC(N)=O)NC(=O)[C@H](CC(C)C)NC(=O)[C@H](CC(N)=O)NC(=O)[C@H](Cc2c[nH]c3ccccc23)NC(=O)[C@@H]2CCCN2C(=O)[C@H](CC(C)C)NC(=O)[C@H](CCCNC(=N)N)NC(=O)[C@@H](NC(C)=O)CSSC[C@@H](C(N)=O)NC(=O)CNC(=O)CNC(=O)CNC1=O) [Compound 81] | > 50
Ac-CRLPANLQRIGLPC-NH2 (disulfide 1-14; SMILES CC[C@H](C)[C@@H]1NC(=O)[C@H](CCCNC(=N)N)NC(=O)[C@H](CCC(N)=O)NC(=O)[C@H](CC(C)C)NC(=O)[C@H](CC(N)=O)NC(=O)[C@H](C)NC(=O)[C@@H]2CCCN2C(=O)[C@H](CC(C)C)NC(=O)[C@H](CCCNC(=N)N)NC(=O)[C@@H](NC(C)=O)CSSC[C@@H](C(N)=O)NC(=O)[C@@H]2CCCN2C(=O)[C@H](CC(C)C)NC(=O)CNC1=O) [Compound 76] | > 50
Ac-CRAPWNLQRIGLPC-NH2 (disulfide 1-14; SMILES CC[C@H](C)[C@@H]1NC(=O)[C@H](CCCNC(=N)N)NC(=O)[C@H](CCC(N)=O)NC(=O)[C@H](CC(C)C)NC(=O)[C@H](CC(N)=O)NC(=O)[C@H](Cc2c[nH]c3ccccc23)NC(=O)[C@@H]2CCCN2C(=O)[C@H](C)NC(=O)[C@H](CCCNC(=N)N)NC(=O)[C@@H](NC(C)=O)CSSC[C@@H](C(N)=O)NC(=O)[C@@H]2CCCN2C(=O)[C@H](CC(C)C)NC(=O)CNC1=O) [Compound 78] | > 50
Ac-CRLPWNLQRIGLGC-NH2 (disulfide 1-14; SMILES CC[C@H](C)[C@@H]1NC(=O)[C@H](CCCNC(=N)N)NC(=O)[C@H](CCC(N)=O)NC(=O)[C@H](CC(C)C)NC(=O)[C@H](CC(N)=O)NC(=O)[C@H](Cc2c[nH]c3ccccc23)NC(=O)[C@@H]2CCCN2C(=O)[C@H](CC(C)C)NC(=O)[C@H](CCCNC(=N)N)NC(=O)[C@@H](NC(C)=O)CSSC[C@@H](C(N)=O)NC(=O)CNC(=O)[C@H](CC(C)C)NC(=O)CNC1=O) [Compound 80] | > 50
Ac-CRLAWNLQRIGLPC-NH2 (disulfide 1-14; SMILES CC[C@H](C)[C@@H]1NC(=O)[C@H](CCCNC(=N)N)NC(=O)[C@H](CCC(N)=O)NC(=O)[C@H](CC(C)C)NC(=O)[C@H](CC(N)=O)NC(=O)[C@H](Cc2c[nH]c3ccccc23)NC(=O)[C@H](C)NC(=O)[C@H](CC(C)C)NC(=O)[C@H](CCCNC(=N)N)NC(=O)[C@@H](NC(C)=O)CSSC[C@@H](C(N)=O)NC(=O)[C@@H]2CCCN2C(=O)[C@H](CC(C)C)NC(=O)CNC1=O) [Compound 77] | > 50
Ac-CALPWNLQRIGLPC-NH2 (disulfide 1-14; SMILES CC[C@H](C)[C@@H]1NC(=O)[C@H](CCCNC(=N)N)NC(=O)[C@H](CCC(N)=O)NC(=O)[C@H](CC(C)C)NC(=O)[C@H](CC(N)=O)NC(=O)[C@H](Cc2c[nH]c3ccccc23)NC(=O)[C@@H]2CCCN2C(=O)[C@H](CC(C)C)NC(=O)[C@H](C)NC(=O)[C@@H](NC(C)=O)CSSC[C@@H](C(N)=O)NC(=O)[C@@H]2CCCN2C(=O)[C@H](CC(C)C)NC(=O)CNC1=O) [Compound 79] | > 50
Ac-CRLPWNL[dQ]RIGLPC-NH2 (disulfide 1-14; SMILES CC[C@H](C)[C@@H]1NC(=O)[C@H](CCCNC(=N)N)NC(=O)[C@@H](CCC(N)=O)NC(=O)[C@H](CC(C)C)NC(=O)[C@H](CC(N)=O)NC(=O)[C@H](Cc2c[nH]c3ccccc23)NC(=O)[C@@H]2CCCN2C(=O)[C@H](CC(C)C)NC(=O)[C@H](CCCNC(=N)N)NC(=O)[C@@H](NC(C)=O)CSSC[C@@H](C(N)=O)NC(=O)[C@@H]2CCCN2C(=O)[C@H](CC(C)C)NC(=O)CNC1=O, also called Ac-CRLPWNLqRIGLPC-NH2) [Compound 103] | > 50
Ac-CRLPWN[dL]QRIGLPC-NH2 (disulfide 1-14; SMILES CC[C@H](C)[C@@H]1NC(=O)[C@H](CCCNC(=N)N)NC(=O)[C@H](CCC(N)=O)NC(=O)[C@@H](CC(C)C)NC(=O)[C@H](CC(N)=O)NC(=O)[C@H](Cc2c[nH]c3ccccc23)NC(=O)[C@@H]2CCCN2C(=O)[C@H](CC(C)C)NC(=O)[C@H](CCCNC(=N)N)NC(=O)[C@@H](NC(C)=O)CSSC[C@@H](C(N)=O)NC(=O)[C@@H]2CCCN2C(=O)[C@H](CC(C)C)NC(=O)CNC1=O, also called Ac-CRLPWNlQRIGLPC-NH2) [Compound 104] | > 50
Ac-CRLPWNLQ[hArg]IGLPC-NH2 (disulfide 1-14; SMILES CC[C@H](C)[C@@H]1NC(=O)[C@H](CCCCNC(=N)N)NC(=O)[C@H](CCC(N)=O)NC(=O)[C@H](CC(C)C)NC(=O)[C@H](CC(N)=O)NC(=O)[C@H](Cc2c[nH]c3ccccc23)NC(=O)[C@@H]2CCCN2C(=O)[C@H](CC(C)C)NC(=O)[C@H](CCCNC(=N)N)NC(=O)[C@@H](NC(C)=O)CSSC[C@@H](C(N)=O)NC(=O)[C@@H]2CCCN2C(=O)[C@H](CC(C)C)NC(=O)CNC1=O) [Compound 117] | > 50
Ac-CRLP[dW]NLQRIGLPC-NH2 (disulfide 1-14; SMILES CC[C@H](C)[C@@H]1NC(=O)[C@H](CCCNC(=N)N)NC(=O)[C@H](CCC(N)=O)NC(=O)[C@H](CC(C)C)NC(=O)[C@H](CC(N)=O)NC(=O)[C@@H](Cc2c[nH]c3ccccc23)NC(=O)[C@@H]2CCCN2C(=O)[C@H](CC(C)C)NC(=O)[C@H](CCCNC(=N)N)NC(=O)[C@@H](NC(C)=O)CSSC[C@@H](C(N)=O)NC(=O)[C@@H]2CCCN2C(=O)[C@H](CC(C)C)NC(=O)CNC1=O) [Compound 106] | > 50
